Results as given in patent US20030119096A1 (published 2003).

T1: rat GALR3 receptor (rat, UniProt O88626 1-370)
T1 construct: also called rGALR3; rGalR3
T1 sequence: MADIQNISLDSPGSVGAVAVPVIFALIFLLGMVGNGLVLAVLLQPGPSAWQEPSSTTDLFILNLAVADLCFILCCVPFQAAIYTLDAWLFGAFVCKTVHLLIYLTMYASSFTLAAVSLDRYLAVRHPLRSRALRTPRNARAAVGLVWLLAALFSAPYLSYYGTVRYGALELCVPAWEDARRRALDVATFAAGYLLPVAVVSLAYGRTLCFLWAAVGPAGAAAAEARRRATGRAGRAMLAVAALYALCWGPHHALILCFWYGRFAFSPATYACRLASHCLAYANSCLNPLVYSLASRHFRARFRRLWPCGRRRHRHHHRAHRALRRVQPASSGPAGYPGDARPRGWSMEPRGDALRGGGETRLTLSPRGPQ


Tests used:
[1] = molecular target: human GALR3 receptor (human) (UniProt O60755); assay: cell-based or functional assay
rat GALR1 receptor (rat) = rat GALR1 receptor (rat) (UniProt Q62805); assay: cell-based or functional assay
rat GALR2 receptor (rat) = rat GALR2 receptor (rat) (UniProt O08726); assay: cell-based or functional assay
rat GALR3 receptor = molecular target: T1, rat GALR3 receptor; assay: porcine 125I-galanin competition binding, 293 #105

Chain of rat GALR1 receptor (rat) (Q62805 whole entry): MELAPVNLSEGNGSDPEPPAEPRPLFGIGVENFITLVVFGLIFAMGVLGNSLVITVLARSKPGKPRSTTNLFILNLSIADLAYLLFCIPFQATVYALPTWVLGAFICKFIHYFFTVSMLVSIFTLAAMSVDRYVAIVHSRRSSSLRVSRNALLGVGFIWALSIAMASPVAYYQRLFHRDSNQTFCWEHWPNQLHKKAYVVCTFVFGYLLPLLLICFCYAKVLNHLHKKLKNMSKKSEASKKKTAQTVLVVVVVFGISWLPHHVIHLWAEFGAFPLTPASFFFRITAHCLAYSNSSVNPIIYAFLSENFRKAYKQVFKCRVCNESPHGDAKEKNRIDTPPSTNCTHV
Chain of rat GALR2 receptor (rat) (O08726 whole entry): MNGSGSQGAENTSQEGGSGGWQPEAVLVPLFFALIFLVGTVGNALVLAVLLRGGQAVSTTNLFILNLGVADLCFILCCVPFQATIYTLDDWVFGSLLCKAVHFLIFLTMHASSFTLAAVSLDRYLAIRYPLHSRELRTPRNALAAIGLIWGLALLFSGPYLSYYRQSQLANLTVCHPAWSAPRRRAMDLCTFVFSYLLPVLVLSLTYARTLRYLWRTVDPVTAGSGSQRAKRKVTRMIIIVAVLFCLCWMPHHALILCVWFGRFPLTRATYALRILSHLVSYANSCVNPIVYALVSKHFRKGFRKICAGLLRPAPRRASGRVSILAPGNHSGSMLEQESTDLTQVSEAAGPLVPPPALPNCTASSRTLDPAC
Chain of human GALR3 receptor (human) (O60755 whole entry): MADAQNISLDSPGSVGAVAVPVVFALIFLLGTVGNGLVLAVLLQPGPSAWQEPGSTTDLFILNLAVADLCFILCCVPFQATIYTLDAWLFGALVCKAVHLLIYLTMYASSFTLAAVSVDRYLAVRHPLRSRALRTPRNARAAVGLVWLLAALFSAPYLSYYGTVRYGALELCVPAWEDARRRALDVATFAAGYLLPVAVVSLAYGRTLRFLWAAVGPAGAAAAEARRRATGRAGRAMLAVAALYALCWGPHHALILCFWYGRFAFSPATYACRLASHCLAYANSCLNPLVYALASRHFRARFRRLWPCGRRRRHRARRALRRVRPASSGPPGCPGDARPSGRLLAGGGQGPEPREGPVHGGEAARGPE

| Oocyte EC50 for stimulation of GIRKs [1] [nM] | EC50, cAMP, LM(tk-) (rat GALR1 receptor (rat)) [nM] | EC50, AA (arachidonic acid release), CHO #79 (rat GALR2 receptor (rat)) [nM] | Ki (rat GALR3 receptor) [nM] | Molecule |
| --- | --- | --- | --- | --- |
| 343 | 0.52 | 2.41 |  | C7 (peptide) |
|  |  |  | 4.17 | LGSPVKEKRGWTLNSAGYLLGPHAIDNHRSFHDKYGLA (peptide, UniProt P07480 24-61, looked up, range -9 to +29; also called galanin -9 to +29) [(-)9 to (+)29 galanin, porcine] |
